Experimental findings from US20110263014A1, “Cleavage of Nanog by Caspases Mediates the Differentiation of Embryonic Stem Cells” (BAYLOR COLLEGE OF MEDICINE, priority 2008, published 2011) are described below.

For assay [1], the target named is T1, caspase-9 (Homo sapiens, UniProt P55211).
T1 sequence (P55211 1-416): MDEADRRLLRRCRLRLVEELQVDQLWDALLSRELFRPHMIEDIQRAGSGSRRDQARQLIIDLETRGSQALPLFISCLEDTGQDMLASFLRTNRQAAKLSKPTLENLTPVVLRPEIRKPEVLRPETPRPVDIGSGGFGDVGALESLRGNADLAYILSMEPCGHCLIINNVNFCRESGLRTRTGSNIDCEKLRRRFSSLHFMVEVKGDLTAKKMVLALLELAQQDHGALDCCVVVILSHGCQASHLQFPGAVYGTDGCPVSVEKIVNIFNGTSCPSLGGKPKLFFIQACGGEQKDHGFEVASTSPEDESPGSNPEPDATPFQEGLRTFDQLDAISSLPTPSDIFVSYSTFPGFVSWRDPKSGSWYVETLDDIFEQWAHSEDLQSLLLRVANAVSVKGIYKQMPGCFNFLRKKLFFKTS
Put plainly: cleavage of immunoprecipitated mNanog by recombinant caspase-9. In kind it is biochemical. As to conditions: protein immunoprecipitated from ES cells.

Assay [2] deals with mouse ES cells. The assay is described as follows: colony formation at clonal density, alkaline phosphatase staining. In kind it is cell-based. As to conditions: transfected mouse ES cells, 5000 cells/cm^2, with or without LIF, 3 days.

B1: D67G mNanog: caspase cleavage-resistant mutant of mouse Nanog, mutation at position 67 (protein)
chain: MSVGLPGPHSLPSSEEASNSGNASSMPAVFHPENYSCLQGSATEMLCTEAASPRPSSEDLPLQGSPGSSTSPKQKLSSPEADKGPEEEENKVLARKQKMRTVFSQAQLCALKDRFQKQKYLSLQQMQELSSILNLSYKQVKTWFQNQRMKCKRWQKNQWLKTSNGLIQKGSAPVEYPSIHCSYPQGYLVNASGSLSMWGSQTWTNPTWSSQTWTNPTWNNQTWTNPTWSSQAWTAQSWNGQPWNAAPLHNFGEDFLQPYVQLQQNFSASDLEVNLEATRESHAHFSTPQALELFLNYSVTPPGEI
For B1, in assay [1], the “cleavage by caspase-9” value is “greatly diminished cleavage”. Further, the “number of undifferentiated (AP-positive) colonies” value in assay [2] was “substantially increased”.
